Source: patent EP3088890B1 (Chugai Seiyaku Kabushiki Kaisha, dated 2020)

Tests used:
[1] = molecular target: GPC3 core (sGPC3-His) protein (human) (UniProt P51654); assay: competition ELISA on plate-bound sGPC3; unlabeled GT114 (100-fold) against competitor biotin-labeled GT114; signal of the labeled antibody
[2] = molecular target: GPC3 core (sGPC3-His) protein (human) (UniProt P51654); assay: competition ELISA on plate-bound sGPC3; unlabeled GT114 (100-fold) against competitor biotin-labeled GT165; signal of the labeled antibody
[3] = molecular target: T1, AW5, C-terminally His-tagged recombinant product of positions 1 to 357 of GPC3 (human, UniProt P51654 25-357); assay: Western blot analysis, CHO cell pellets
T1 construct: Expressed in CHO cells, cell pellets used in Western blot; The range is as printed and starts at position 1; also called AW5 (1-357); not shown: C-terminal His tag

[4] = molecular target: GPC3 core (sGPC3-His) protein (human) (UniProt P51654); assay: competition ELISA on plate-bound sGPC3; unlabeled GT114 (100-fold) against competitor biotin-labeled GT607
[5] = molecular target: GPC3 core (sGPC3-His) protein (human) (UniProt P51654); assay: competition ELISA on plate-bound sGPC3; unlabeled GT114 (100-fold) against competitor biotin-labeled GT114
[6] = molecular target: GPC3 core (sGPC3-His) protein (human) (UniProt P51654); assay: ELISA on plate-bound sGPC3; biotin-labeled GT114, no unlabeled antibody
[7] = molecular target: GPC3 core (sGPC3-His) protein (human) (UniProt P51654); assay: competition ELISA on plate-bound sGPC3; unlabeled GT114 (100-fold) against competitor biotin-labeled GT30
[8] = molecular target: T2, GPC3 peptide 1-30 (SEQ ID NO: 1) (human); assay: peptide ELISA, peptide on plate
T2 construct: Synthetic 30-residue peptide of GPC3
T2 peptide: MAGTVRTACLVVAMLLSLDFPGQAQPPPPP

[9] = molecular target: T3, GPC3 peptide 181-210 (SEQ ID NO: 10) (human); assay: peptide ELISA, peptide on plate
T3 construct: Synthetic 30-residue peptide of GPC3
T3 peptide: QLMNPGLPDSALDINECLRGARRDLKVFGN

[10] = molecular target: GPC3 core (sGPC3-His) protein (human) (UniProt P51654); assay: competition ELISA on plate-bound sGPC3; unlabeled GT114 (100-fold) against competitor biotin-labeled GT30; signal of the labeled antibody
[11] = molecular target: GPC3 core (sGPC3-His) protein (human) (UniProt P51654); assay: competition ELISA on plate-bound sGPC3; unlabeled GT165 (100-fold) against competitor biotin-labeled GT30
[12] = molecular target: GPC3 core (sGPC3-His) protein (human) (UniProt P51654); assay: competition ELISA on plate-bound sGPC3; unlabeled GT165 (100-fold) against competitor biotin-labeled GT30; signal of the labeled antibody
[13] = molecular target: GPC3 core (sGPC3-His) protein (human) (UniProt P51654); assay: ELISA on plate-bound sGPC3; biotin-labeled GT165, no unlabeled antibody
[14] = molecular target: T1, AW5, C-terminally His-tagged …; assay: Western blot, pellets of CHO cells expressing the product
[15] = molecular target: GPC3 core (sGPC3-His) protein (human) (UniProt P51654); assay: competition ELISA on plate-bound sGPC3; unlabeled GT165 (100-fold) against competitor biotin-labeled GT607; signal of the labeled antibody
[16] = molecular target: GPC3 core (sGPC3-His) protein (human) (UniProt P51654); assay: competition ELISA on plate-bound sGPC3; unlabeled GT165 (100-fold) against competitor biotin-labeled GT607
[17] = molecular target: GPC3 core (sGPC3-His) protein (human) (UniProt P51654); assay: competition ELISA on plate-bound sGPC3; unlabeled GT165 (100-fold) against competitor biotin-labeled GT165
[18] = molecular target: GPC3 core (sGPC3-His) protein (human) (UniProt P51654); assay: competition ELISA on plate-bound sGPC3; unlabeled GT165 (100-fold) against competitor biotin-labeled GT114; signal of the labeled antibody
[19] = molecular target: GPC3 core (sGPC3-His) protein (human) (UniProt P51654); assay: ELISA on plate-bound sGPC3; biotin-labeled GT607, no unlabeled antibody
[20] = molecular target: GPC3 core (sGPC3-His) protein (human) (UniProt P51654); assay: competition ELISA on plate-bound sGPC3; unlabeled GT607 (100-fold) against competitor biotin-labeled GT114
[21] = molecular target: GPC3 core (sGPC3-His) protein (human) (UniProt P51654); assay: competition ELISA on plate-bound sGPC3; unlabeled GT607 (100-fold) against competitor biotin-labeled GT30
[22] = molecular target: GPC3 core (sGPC3-His) protein (human) (UniProt P51654); assay: competition ELISA on plate-bound sGPC3; unlabeled GT607 (100-fold) against competitor biotin-labeled GT607
[23] = molecular target: GPC3 core (sGPC3-His) protein (human) (UniProt P51654); assay: competition ELISA on plate-bound sGPC3; unlabeled GT607 (100-fold) against competitor biotin-labeled GT30; signal of the labeled antibody
[24] = molecular target: GPC3 core (sGPC3-His) protein (human) (UniProt P51654); assay: competition ELISA on plate-bound sGPC3; unlabeled GT607 (100-fold) against competitor biotin-labeled GT165
[25] = molecular target: GPC3 core (sGPC3-His) protein (human) (UniProt P51654); assay: competition ELISA on plate-bound sGPC3; unlabeled GT607 (100-fold) against competitor biotin-labeled GT165; signal of the labeled antibody
[26] = molecular target: GPC3 core (sGPC3-His) protein (human) (UniProt P51654); assay: competition ELISA on plate-bound sGPC3; unlabeled GT607 (100-fold) against competitor biotin-labeled GT607; signal of the labeled antibody

T1 sequence (P51654 25-357): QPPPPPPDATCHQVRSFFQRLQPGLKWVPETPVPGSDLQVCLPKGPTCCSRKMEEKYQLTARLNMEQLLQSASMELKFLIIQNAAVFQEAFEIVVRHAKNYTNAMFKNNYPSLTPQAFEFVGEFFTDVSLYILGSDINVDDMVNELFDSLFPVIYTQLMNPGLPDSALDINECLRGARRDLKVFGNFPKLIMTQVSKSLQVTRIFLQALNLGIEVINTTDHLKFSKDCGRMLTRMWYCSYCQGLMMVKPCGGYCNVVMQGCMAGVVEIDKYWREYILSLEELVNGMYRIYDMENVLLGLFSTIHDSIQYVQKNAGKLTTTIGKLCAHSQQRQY
GPC3 core (sGPC3-His) protein (human), sequence (P51654 25-563 S495A/S509A): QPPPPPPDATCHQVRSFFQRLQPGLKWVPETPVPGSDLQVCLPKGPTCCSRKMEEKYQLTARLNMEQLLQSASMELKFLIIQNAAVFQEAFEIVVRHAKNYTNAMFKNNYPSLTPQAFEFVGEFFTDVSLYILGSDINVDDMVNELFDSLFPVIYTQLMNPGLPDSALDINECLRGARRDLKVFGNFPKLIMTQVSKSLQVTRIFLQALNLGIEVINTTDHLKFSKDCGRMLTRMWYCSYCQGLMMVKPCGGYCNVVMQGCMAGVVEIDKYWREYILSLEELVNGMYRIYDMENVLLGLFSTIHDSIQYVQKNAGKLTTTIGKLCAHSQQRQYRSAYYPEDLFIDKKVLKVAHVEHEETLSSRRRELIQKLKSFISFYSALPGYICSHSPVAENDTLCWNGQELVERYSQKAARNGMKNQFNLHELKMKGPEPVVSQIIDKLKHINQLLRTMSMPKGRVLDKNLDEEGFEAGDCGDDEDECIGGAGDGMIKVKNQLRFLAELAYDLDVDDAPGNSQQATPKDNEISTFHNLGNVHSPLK

B1: GT114 antibody (antibody, IgG1, V domains shown)
VH: DVQLQESGPGLVKPSQSLSLTCTVTGYSITSDSAWNWIRQFPGNKLEWMAYIMYSGITSYNPSLKSRISITRDTAKNQFFLQLNSVTTEDSATYYCSRGYWYFDVWGAGTTVTVSS
VL: QIVLTQSPAIMSASLGEEITLTCSASSSVSYMHWYQQKSGTSPKLLIYSTSILASGVPSRFSGSGSGTFYSLTISSVEAEDAADYYCLQWITYRTFGGGTKLEIKR
O.D. 450 [1]: 0.251 O.D. 450 | O.D. 450 [2]: 1.82 O.D. 450 | binding result [3]: binds | Inhibitory effect (%) [4]: 86% | Inhibitory effect (%) [5]: 89% | O.D. 450 [6]: 2.3 O.D. 450 | Inhibitory effect (%) [7]: < 0% | binding result [8]: no binding (tested: 2 µg/mL) | binding result [9]: no binding (tested: 2 µg/mL) | O.D. 450 [10]: 2.14 O.D. 450

B2: GT165 antibody (antibody, IgG1, V domains shown)
VH: QVQLQQSGAELVGPGASVKISCKAFGYTFTNHHINWVKQRPGQGLDWIGYINPYNDYTNYNQKFKGKATLTVDKSSSTAYMELSSLTSEDSAVYYCARSDPAWFAYWGQGTLVTVSA
VL: DIQMTQSPSSLSASLGGKVTITCKASQDINKNIAWYQHKPGKGPRLLIWYTYTLQPGIPSRFSGSGSGRDYSFSISNLEPEDIATYYCLQYDNLPFTFGTGTKLEIKR
Inhibitory effect (%) [11]: 54% | O.D. 450 [12]: 0.846 O.D. 450 | O.D. 450 [13]: 1.68 O.D. 450 | binding result [14]: no binding | O.D. 450 [15]: 1.25 O.D. 450 | Inhibitory effect (%) [16]: 43% | Inhibitory effect (%) [17]: 93% | O.D. 450 [18]: 2.28 O.D. 450 | binding result [8]: no binding (tested: 2 µg/mL) | binding result [9]: no binding (tested: 2 µg/mL)

B3: GT607 antibody (antibody, IgG1, V domains shown)
VH: EVQLVESGGDVVRPGGSLKLSCAASGFTFSSYGMSWVRQLPDKRLEWVASVGNGGSYRYYPENLKGRFTISRDNTKNTLYLQISGLKSEDTAIYYCARRGAFPYFDVWGAGTTVTVSS
VL: QIVLTQSPAIMSASPGEKVTLACSASSSVTYMHWYQQKSGTSPKRWIYETSKLASGVPPRFSGSGSGTSYSLTISTMEAEDAATYYCQQWSSNPLTFGAGTKLELKR
O.D. 450 [19]: 2.18 O.D. 450 | Inhibitory effect (%) [20]: 51% | Inhibitory effect (%) [21]: < 0% | binding result [3]: binds | Inhibitory effect (%) [22]: 94% | O.D. 450 [23]: 2.06 O.D. 450 | Inhibitory effect (%) [24]: 92% | O.D. 450 [25]: 0.129 O.D. 450 | O.D. 450 [26]: 0.135 O.D. 450 | binding result [8]: no binding (tested: 2 µg/mL) | binding result [9]: no binding (tested: 2 µg/mL)
